The values that follow are results of earlier work, collected in publication PMC5755571.

This data set addresses His64 (UniProt position 64, ILNNGHAFNVE).

For “Carbonic anhydrase II (hCAII) (Homo sapiens)”, the pKa entry is listed as “around 7”.
